In patent EP4631972A1, “SITE-SPECIFIC COUPLED PEGYLATED INTERLEUKIN-2 MUTANT WITH RECEPTOR AFFINITY PREFERENCE AND USE THEREOF” (priority 2022, dated 2024):

Assays:
[1] = tested on: Treg cells; experiment: P-STAT5 activation in Treg cells of human PBMCs (flow cytometry); assay type: cell-based; conditions: P-STAT5 MFI in CD3+/CD4+/CD25+ cells of human PBMCs, 30 min stimulation
Protocol: In the example, the activation effect of each mutant prepared in Example 6 on P-STAT5 in different cell subsets (Tregs, CD8+T cells, NK cells) from human PBMCs (Miaoshun Biotechnology) was detected.
Human PBMC cells were thawed and resuspended to 1.5×10^6 cells/ml in RPMI1640 medium containing 10% FBS. 100 µl was added to each well of a V-bottom 96-well culture plate. Each IL-2 mutant prepared in Example 6 was diluted 10-fold in series: 1000 nM was used as the working concentration for the first well, and then 100 µl/well of each serial dilution was added to each cultured cell, stimulated at 37°C for 30 min, and the reaction was terminated on ice. The cells were treated with a commercial fixative and permeabilization agent (BD biosciences 558049 & 558050), and stained with antibodies against CD3, CD4, CD25, and CD8 according to conventional methods. P-STAT5 antibody staining was also performed (Table 7) to detect the mean fluorescence intensity (MFI) of P-STAT5 in CD3+/CD4+/CD25+ (Treg cells) and CD8+/CD3+ cells ([…]) by flow cytometry.

[2] = tested on: Treg cells; experiment: Pharmacodynamic (PD) study in mice, peripheral Treg cells; assay type: in vivo, Balb/c mice; conditions: 1 mg/kg s.c. single administration
Protocol: In this example, the pharmacodynamics (PD) of each IL-2 mutant obtained in Example 6 was studied in mice after a single administration to mice. SPF grade Balb/c mice were purchased and randomly divided into groups according to body weight, with 3 mice in each group. Drug administration started on the day of grouping. The dosing and grouping information is shown in Table 9, where G1-G5 were administered once, G6 and G7 were administered once a day, for a total of three doses. 30 µl of blood was taken from each group of mice, for PEGylated IL2 mutants and the negative control, blood was collected on day 0 (pre-administration), day 2, 3, 4, 5, 6 and 7 (only for G3, G4 and G5), and for IL2 and IL2-N88R, blood was collected on day 0 (pre-administration), day 1, 2 and 3. The number of each cell subpopulation was measured by flow cytometry. Antibodies against the staining marker used in flow cytometry are shown in Table 10, and the gating settings are shown in Table 11. Table 9 Dosing and grouping table for single-dose PD study in mice

[3] = tested on: Treg cells; experiment: Pharmacodynamic study in cynomolgus monkeys, peripheral Treg cells; assay type: in vivo; conditions: doses ≤400 µg/kg
Text: For information on administration and grouping, see Table 14.

[4] = mouse, in vivo, sc, 1 mg/kg
Protocol: (§1) Balb/c mice were purchased, with 4 mice in each group. Each IL-2 mutant to be tested was administered subcutaneously once at a dose of 1 mg/kg. Blood was collected from the orbit at different time points after administration, and the plasma was separated and the plasma drug concentration was detected by ELISA. The main pharmacokinetic parameters were calculated, and C-T curve was plotted.

[5] = Pharmacokinetic study in cynomolgus monkeys; conditions: cynomolgus monkey
Protocol: Blood was collected before and after administration (4h, 8h, 24h, 48h, 72h, 120h, 168h, 240h, 336h) in the first cycle and after administration (8h, 24h, 48h, 72h, 120h, 168h, 240h) in the second cycle to detect plasma drug concentration.

[6] = Pharmacokinetic study in mice, single administration, plasma concentration by ELISA; conditions: 1 mg/kg s.c. single administration
Protocol: as §1

[7] = female, first-cycle dosing 50 µg/kg s.c.
[8] = female, second-cycle dosing 400 µg/kg s.c.
[9] = male, first-cycle dosing 50 µg/kg s.c.
[10] = male, second-cycle dosing 400 µg/kg s.c.

60K-1PEG-IL2-N88R-N77C: IL2-N88R-N77C with 60 kDa PEG conjugated to the cysteine at position 77
EC50 [1]: 35.1 nM
activation peak of Treg proportion, time [2]: 6 days
increase in Treg proportion at peak [2]: about 15 fold
activation and proliferation of peripheral blood Treg cells [3]: clear activation and proliferation
T1/2 [4]: 20.78 ± 1.92 h
AUC inf [5, 7]: 181.7098 µg·h/mL
AUClast [5, 7]: 148.6109 µg·h/mL
CL [5, 7]: 0.28
Cmax [5, 7]: 701.0718 ng/mL
MRT [5, 7]: 128.4211 h
Tmax [5, 7]: 72 h
AUC inf [5, 8]: 2158.472 µg·h/mL
AUClast [5, 8]: 1360.931 µg·h/mL
CL [5, 8]: 0.19
Cmax [5, 8]: 10419.65 ng/mL
MRT [5, 8]: 101.9 h
Tmax [5, 8]: 8 h
AUC inf [5, 9]: 213.0031 µg·h/mL
AUClast [5, 9]: 157.7992 µg·h/mL
CL [5, 9]: 0.23
Cmax [5, 9]: 815.2866 ng/mL
MRT [5, 9]: 135.9233 h
Tmax [5, 9]: 48 h
AUC inf [5, 10]: 2122.205 µg·h/mL
AUClast [5, 10]: 1412.112 µg·h/mL
CL [5, 10]: 0.19
Cmax [5, 10]: 10199.77 ng/mL
MRT [5, 10]: 100.7 h
Tmax [5, 10]: 8 h
AUC inf [6]: 392.06252 ± 33.89153 µg·h/mL
AUClast [6]: 380.55249 ± 34.19595 µg·h/mL
CL [6]: 2.56±0.22
Cmax [6]: 6633.54 ± 581.69 ng/mL
MRT [6]: 39.45 ± 0.44 h
Tmax [6]: 8 to 24 h
mean half-life [6]: 20.78 h
mean residence time (MRT) [6]: 39.45 h
